According to US20110200615A1:

B1: 2B25.1 IgG (antibody, V domains shown)
VH: QVQLQESGPGLVKPSQTLSLSCSVSGASITSGTFYWSWIRQHPGKDLEWIGYIYYSGTTYYNPSLKSRVTLSVDTSKNQFSLKVTSLTAADTAVYHCARGVPIYDSSGTYRGTYFDYWGQGTLVTVSS
VL: ESVLTQPPSVSAAPGQKVTISCSGSSSNIGNNYVSWYQQLPGTAPKLLIYDNNRRPSGIPDRFSGSKSGTSATLGITGLQTGDEADYYCGTWDSSLSEVVFGGGTKVTVLG
B2: 1B18 IgG (antibody, V domains shown)
VH: EVQLVQSGGGLVQPGGSRRLSCAASGFYFNAYWMTWVRQAPGKGLEWVANINLDGTEIYYLDSVKGRFTVSRDNVKNSVFLQMSSLRVEDTAVYFCARLEWGGRNGWVSPWGQGTLVTVSS
VL: DVVMTQSPSSVSASVGDRVTITCRASQSISSYLNWYQQRPGKAPKLLIFAASSLQSAVPSRFSGSGSGTDFTLTISSLQPEDFATYYCQQSYSTPPTFGQGTKVEIKR
B3: 2B23 IgG (antibody, V domains shown)
VH: EVQLLESGGGLVQPGGSLRLSCAASGFTFSNYPMSWVRQAPGKGLAWVSSLTASGDNTFYADSVKGRFTISRDNSNNTLYLQMHSLRAEDTAVYYCAKALVGRYDISTGYYRPVMDSWGQGTLVTVSS
VL: DIQMTQSPPSLSASVGDRVTITCRTSQGFTSALAWYQQKPGEPPKLLIYDASKLESGVPSRFSGSGSGTNFALTISSLQPEDFATYFCQQSNSYPLTFGGGTKVEIKR
B4: B11E8 IgG (antibody, V domains shown)
VH: EVQLVQSGGGVVQPGRSLRLSCAASGFIFRTYGMHWVRQAPGKGLEWVAFVSSDGNNKFYSDSVKGRFTISRDNAKNTLYLQMNSLETEDTAMYYCAKDRYPIDCSGGSCFSYGMDVWGQGTTVTVSS
VL: EIVLTQSPATLSVSPGERATLSCRASQSVSKFLAWYQQKRGQAPRLLIYGASTRATGIPARFSGSGSGTEFALTISSLQSEDFADYYCQQYDNWPITFGQGTRLEIKR
B5: B12.1 IgG (antibody, V domains shown)
VH: QVNLRESGGGVVQPGRSLRLSCAASGFTFSSYALHWVRQTPGKGLEWVALISYDGSNKYYADSVKGRFTISRDNSKNMLYLQMNSLRAEDTAVYYCAKDRSHYGDYVGYLDYWGQGTLVTVSS
VL: AYVLTQPPSVSVAPGKTAAITCEGNNVGNKNVHWYQQRPGQAPVLVVHDDSDRPSGIPERFSGSNSGNTATLTINRVEAGDEADYYCQVWDSSSAQWVFGGGTKLTVLG
B6: 1B10.1 IgG (antibody, V domains shown)
VH: QVQLVESGGGVVQPGRSLRLSCAASGFTFSHYGMHWVRQSPGKGLEWVAVIWYDGRNPYYAASVKGRFTISRDNDKNTLYLQMNSLRAEDTAVYYCVKDLTRFHDTTFGVFEMWGPGTTVTVSS
VL: EIVLTQSPSFVSASVGDRVTITCRASQGISSWLAWYQQKPGKAPKLLIYAASSLQSGVPSRFSGSGSGTEFTLTISSLQPDDFATYYCQQYSSLYTFGQGTKVDIKR
B7: 1B10 scFv (yeast displayed) (scFv)
scFv: QVQLVESGGGVVQPGRSLRLSCAASGFTFSHYGMHWVRQSPGKGLEWVAVIWYDGRNPYYAASVKGRFTISRDNDKNTLYLQMNSLRAEDTAVYYCVKDLTRFHDTTFGVFEMWGPGTTVTVSSGGGGSGGGGSGGGGSEIVLTQSPSSLSASVGDRITITCRASQSISSWLAWYQQKPGKAPMVLIYKASSLENGVPSRFSGSGSGTEFTLTISSLQPDDFATYYCQQYSTYSRTFGQGTKVEIKR
B8: 2B23 scFv (yeast displayed) (scFv)
scFv: EVQLLESGGGLVQPGGSLRLSCAASGFTFSNYPMSWVRQAPGKGLAWVSSLTASGDNTFYADSVKGRFTISRDNSNNTLYLQMHSLRAEDTAVYYCAKALVGRYDISTGYYRPVMDSWGQGTLVTVSSGGGGSGGGGSGGGGSDIQMTQSPPSLSASVGDRVTITCRTSQGFTSALAWYQQKPGEPPKLLIYDASKLESGVPSRFSGSGSGTNFALTISSLQPEDFATYFCQQSNSYPLTFGGGTKVEIKR
B9: 2B24 scFv (yeast displayed) (scFv)
scFv: QVQLVESGGGVVQPGRSLRLSCAASGLTFSVYGMHWVRQAPGKGLEWVAVISHTGSEEYYADSVKGRFSISRDNSNNTLFLQMNSLRPEDTAVYYCVKDGPMAAIPFYYFDFWGQGTLVTVSSGGGGSGGGGSGGGGSQSVVTQPPSVSAAPGQKVTISCSGSSSNIGNNYVSWYQQLPGTAPKLLIYDNNKRPSGIPDRFSGSKSGTSATLGITGLQTGDEADYYCGTWDSSLSAGVFGGGTKLTVLG
B10: 2B25 scFv (yeast displayed) (scFv)
scFv: QVQLQESGPGLVKPSQTLSLSCSVSGASITSGTFYWSWIRQHPGKDLEWIGYIYYSGTTYYNPSLKSRVTLSVDTSKNQFSLKVTSLTAADTAVYHCARGVPIYDSSGTYRGTYFDYWGQGTLVTVSSGGGGSGGGGSGGGGSQPGLTQPPSASGTPGQRVTISCSGSSSNVGSNTVNWYQQLPGTAPKLLIYRNDQRPSGVPDRFSGSKSGASASLAISGLRSEDEADYYCAAWDDSLNGLLFGGGTQLTVLG
B11: 2B27 scFv (yeast displayed) (scFv)
scFv: EVQLQESGPGLVKPSETLSVTCAVSGGSISSSNYSWAWIRQPPGKGLEWIGTMYYSGSTHYHPSLKSRVTISVDTSKSQLSLKLSSVTAADTAVYYCARRRLLGPSPYYFDYWGQGTLVTVSSGGGGSGGGGSGGGGSQSVVTQPPSVSGAPGQRVTISCSGSSSNIGAGYDVHWYQQLPGTAPKLLIYGNNNRPSGVPDRFSGSKSGTSASLAITGLQAEDEADYYCQSYDSSLSAYVFGTGTKLTVLG
B12: 1B11 scFv (yeast displayed) (scFv)
scFv: QVQLLQSAGGVVQPGRSLRLSCAASGFIFRTYGMHWVRQAPGKGLEWVAFVSSDGNNKFYSDSVKGRFTIPRDNAKNTLYLQMNSLETEDTAVYYCAKDRYPIDCSGGSCFSYGMDVWGQGTTVTVSSGGGGSGGGGSGGGGSDIVMTQSPSTLSASVGDRVTVTCRASQSINSWLAWYQQKPGKAPKLLIYEASSLESGVPSRFSGSGSGTEFTLTISSLQPDDFATYYCQQYDSYWLTFGGGTKVEIK
B13: 1B18 scFv (yeast displayed) (scFv)
scFv: EVQLVQSGGGLVQPGGSRRLSCAASGFYFNAYWMTWVRQAPGKGLEWVANINLDGTEIYYLDSVKGRFTVSRDNVKNSVFLQMSSLRVEDTAVYFCARLEWGGRNGWVSPWGQGTLVTVSSGGGGSGGGGSGGGGSDVVMTQSPSSVSASVGDRVTITCRASQSISSYLNWYQQRPGKAPKLLIFAASSLQSAVPSRFSGSGSGTDFTLTISSLQPEDFATYYCQQSYSTPPTFGQGTKVEIKR

target: Botulinum neurotoxin type B, subtype B3 (BoNT/B3) (Clostridium botulinum); assay: KinExA flow fluorimetry; IgG in solution

Row | Binder | Kd [nM]
1 | B1 | 0.0177
2 | B2 | 0.972
3 | B3 | 0.048
4 | B4 | 0.0156
5 | B5 | 0.0462
6 | B6 | 1.2

target: Botulinum neurotoxin type B, subtype B4 (BoNT/B4) (Clostridium botulinum); assay: KinExA flow fluorimetry; IgG in solution

Row | Binder | Kd [nM]
7 | B1 | 0.03
8 | B2 | 0.021
9 | B3 | 0.0552
10 | B5 | 0.625
11 | B6 | 0.00047

target: Botulinum neurotoxin type B, subtype B3 (BoNT/B3) (Clostridium botulinum); assay: flow cytometry; yeast-displayed scFv, soluble toxin

Row | Binder | Kd [nM]
12 | B7 | > 5000
13 | B8 | 0.25
14 | B9 | 4
15 | B10 | 0.93
16 | B11 | 2.32
17 | B12 | 4.43
18 | B13 | 3.04

target: Botulinum neurotoxin type B, subtype B4 (BoNT/B4) (Clostridium botulinum); assay: as above

Row | Binder | Kd [nM]
19 | B7 | 4.69
20 | B8 | 0.19
21 | B9 | 0.72
22 | B10 | 0.68
23 | B11 | 0.77
24 | B13 | 1.7
